Laboratory results: patent US20120309692
Where “and” joins values, the source holds several entries; their conditions need not be identical. Equal entries are not always repeated.

Experiments:
[1] = system: H-Arg-Gln-Arg-Arg-AMC (SEQ ID NO: 63)
[2] = system: H-Pro-Phe-Arg-AMC (SEQ ID NO: 55)
[3] = system: GAEQKRRL (SEQ ID NO: 103)
[4] = system: GHEQKRR-dL (SEQ ID NO: 110)
[5] = system: GGKAR-dR-L (SEQ ID NO: 122)
Semenogelin I = Semenogelin I (UniProt P04279)
[6] = system: H-D-Val-Leu-Lys-AMC (SEQ ID NO: 57)
[7] = system: Z-Ala-Arg-Arg-AMC (SEQ ID NO: 62)
[8] = system: Z-Leu-Leu-Arg-AMC (SEQ ID NO: 60)
[9] = target: protein C inhibitor (PCI) (UniProt P05154)
Sequence of protein C inhibitor (PCI) (P05154 20-406): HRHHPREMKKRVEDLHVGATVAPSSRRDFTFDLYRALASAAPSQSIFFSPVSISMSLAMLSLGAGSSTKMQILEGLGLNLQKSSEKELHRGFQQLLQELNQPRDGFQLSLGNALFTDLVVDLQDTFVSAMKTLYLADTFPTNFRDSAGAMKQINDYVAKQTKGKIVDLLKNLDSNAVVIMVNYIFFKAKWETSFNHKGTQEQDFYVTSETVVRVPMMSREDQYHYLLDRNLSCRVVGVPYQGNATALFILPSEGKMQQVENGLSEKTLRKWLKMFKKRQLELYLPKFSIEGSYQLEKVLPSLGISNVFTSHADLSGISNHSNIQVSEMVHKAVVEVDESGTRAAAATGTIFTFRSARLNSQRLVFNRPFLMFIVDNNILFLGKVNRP

[10] = system: GGKA-dR-RL (SEQ ID NO: 119)
[11] = system: Boc-Phe-Ser-Arg-AMC (SEQ ID NO: 53)
[12] = system: Z-Val-Val-Arg-AMC (SEQ ID NO: 61)
[13] = system: Tos-Gly-Pro-Lys-AMC (SEQ ID NO: 59)
[14] = system: GGKA-dR-dR-L (SEQ ID NO: 123)
Semenogelin II = Semenogelin II (UniProt Q02383)
Sequence of Semenogelin II (Q02383 24-582): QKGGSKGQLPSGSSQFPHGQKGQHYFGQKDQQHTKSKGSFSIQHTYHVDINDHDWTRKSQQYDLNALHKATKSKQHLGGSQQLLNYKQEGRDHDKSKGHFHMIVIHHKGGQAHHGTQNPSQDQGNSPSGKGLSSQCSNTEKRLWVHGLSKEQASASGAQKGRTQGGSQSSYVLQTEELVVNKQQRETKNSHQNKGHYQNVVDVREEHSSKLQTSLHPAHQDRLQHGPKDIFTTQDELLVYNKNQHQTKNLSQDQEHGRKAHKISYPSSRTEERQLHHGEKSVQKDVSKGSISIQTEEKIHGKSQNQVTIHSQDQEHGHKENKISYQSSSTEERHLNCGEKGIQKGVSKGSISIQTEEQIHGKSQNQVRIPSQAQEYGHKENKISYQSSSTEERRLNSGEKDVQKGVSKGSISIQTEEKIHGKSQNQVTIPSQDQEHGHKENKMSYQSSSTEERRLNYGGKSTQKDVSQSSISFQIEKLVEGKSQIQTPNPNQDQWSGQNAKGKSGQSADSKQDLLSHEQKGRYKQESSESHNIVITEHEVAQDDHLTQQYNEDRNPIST

[15] = system: boc-Val-Pro-Arg-AMC (SEQ ID NO: 56)
[16] = system: Tos-Gly-Pro-Arg-AMC (SEQ ID NO: 58)
[17] = system: GHEQKRRE (SEQ ID NO: 113)
[18] = system: GHEQARRL (SEQ ID NO: 108)
[19] = system: Boc-Gln-Gly-Arg-AMC (SEQ ID NO: 54)

Sequence of Semenogelin I (P04279 24-462): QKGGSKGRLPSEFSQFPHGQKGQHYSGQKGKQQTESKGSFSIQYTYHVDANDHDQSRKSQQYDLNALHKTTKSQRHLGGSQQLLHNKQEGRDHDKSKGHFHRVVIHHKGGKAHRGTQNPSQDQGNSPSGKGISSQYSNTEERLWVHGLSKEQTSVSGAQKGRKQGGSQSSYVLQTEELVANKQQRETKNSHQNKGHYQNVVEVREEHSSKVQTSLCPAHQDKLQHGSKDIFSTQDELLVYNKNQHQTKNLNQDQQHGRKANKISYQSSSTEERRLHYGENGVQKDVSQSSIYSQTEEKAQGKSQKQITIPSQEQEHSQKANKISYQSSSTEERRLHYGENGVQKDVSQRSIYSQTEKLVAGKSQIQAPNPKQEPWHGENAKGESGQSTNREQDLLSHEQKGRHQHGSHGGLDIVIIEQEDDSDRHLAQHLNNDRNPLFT

“recombinant human glandular kallikrein 2 (hK2)” was tested, and the hK2 Hydrolysis Rate (GHEQKGRL (SEQ ID NO: 76)) was 651 FU/hr/m, the hK2 Hydrolysis Rate (GPAHQRRL (SEQ ID NO: 69)) was 4020 FU/hr/m and the hK2 Hydrolysis Rate (GGQKRRL (SEQ ID NO: 96)) was 3270 FU/hr/m. For the same substance, the hK2 Hydrolysis Rate (GSYPSRRL (SEQ ID NO: 74)) was 2060 FU/hr/m, the “substrate hydrolysis by hK2” value [1] was “NR” and the hK2 Hydrolysis Rate (GGKHRRL (SEQ ID NO: 107)) was 2080 FU/hr/m. For the same substance, the hK2 Hydrolysis Rate (GGGKAHRL (SEQ ID NO: 68)) was 4100 FU/hr/m, the hK2 Hydrolysis Rate (GGKAHKL (SEQ ID NO: 121)) was 73.2 FU/hr/m and the Activity (%) with 100 µM substrate, relative to H-Pro-Phe-Arg-AMC [2] was 100%. The Kcat [2] was 55 min⁻¹, the Kcat/km [2] was 1.38 µM⁻¹ min⁻¹ and the Km [2] was 40 µM. For the same substance, the “rate of cleavage of 100 µM substrate by 1.6 pmol hK2” value [2] was 1.6 pmol of the hK2 preparation cleaved 50 pmol/min of the 100 µM substrate Pro-Phe-Arg-AMC, the hK2 Hydrolysis Rate [3] was 2330 FU/hr/m and the hK2 Hydrolysis Rate [4] was 1690 FU/hr/m. It also gave a hK2 Hydrolysis Rate [5] of 49.6 FU/hr/m, a hK2 Hydrolysis Rate (GHEQKGHL (SEQ ID NO: 89)) of 1.3 FU/hr/m and a hK2 Hydrolysis Rate (GSKGHRRL (SEQ ID NO: 71)) of 2650 FU/hr/m. For the same substance, the “cleavage by hK2 (HPLC of fragments)” value (Semenogelin I) was “Cleavage of either Sg I or Sg II with hK2 results in generation of a multitude of peptides”, the hK2 Hydrolysis Rate (GGKAKRL (SEQ ID NO: 109)) was 1790 FU/hr/m and the hK2 Hydrolysis Rate (GHEQKRRL (SEQ ID NO: 66)) was 5970 FU/hr/m and 3370 FU/hr/m. The hK2 Hydrolysis Rate (GGKARRL (SEQ ID NO: 105)) was 2170 FU/hr/m, the hK2 Hydrolysis Rate (GGKARRS (SEQ ID NO: 111)) was 1610 FU/hr/m and the hK2 Hydrolysis Rate (GGKAQRL (SEQ ID NO: 104)) was 2230 FU/hr/m. It also gave a hK2 Hydrolysis Rate (GSYEERHL (SEQ ID NO: 84)) of 42.9 FU/hr/m, a hK2 Hydrolysis Rate (GGHKRRL (SEQ ID NO: 101)) of 2430 FU/hr/m and a hK2 Hydrolysis Rate (GGAKRRL (SEQ ID NO: 98)) of 2770 FU/hr/m. The “substrate hydrolysis by hK2” value [6] was “NR”, the Activity (%) with 100 µM substrate, relative to H-Pro-Phe-Arg-AMC [7] was 33% and the Kcat [7] was 7.2 min⁻¹. It also gave a Kcat/km [7] of 0.36 µM⁻¹ min⁻¹, a Km [7] of 20 µM and a hK2 Hydrolysis Rate (GHEQKRRA (SEQ ID NO: 97)) of 3050 FU/hr/m. It also gave an Activity (%) with 100 µM substrate, relative to H-Pro-Phe-Arg-AMC [8] of 7%, a Kcat [8] of 2.4 min⁻¹ and a Kcat/km [8] of 0.034 µM⁻¹ min⁻¹. The Km [8] was 71 µM, the hK2 Hydrolysis Rate (GSKGHFHL (SEQ ID NO: 81)) was 171 FU/hr/m and the “progress curves of Pro-Phe-Arg-AMC hydrolysis by 8 nM hK2 with 80, 40 or 16 nM PCI” value [9] was “The inhibitor of hK2 by PCI could be described by the slow-binding inhibition mechanism presented in Scheme 2”. It also gave a hK2 Hydrolysis Rate (GPAHQDHL (SEQ ID NO: 90)) of 48.1 FU/hr/m, a hK2 Hydrolysis Rate (GGKSRRL (SEQ ID NO: 94)) of 3440 FU/hr/m and a hK2 Hydrolysis Rate (GGKAHRL (SEQ ID NO: 114)) of 1290 FU/hr/m. For the same substance, the hK2 Hydrolysis Rate [10] was 494 FU/hr/m, the “substrate hydrolysis by hK2” value [11] was “NR” and the hK2 Hydrolysis Rate (GGKARQL (SEQ ID NO: 116)) was 1020 FU/hr/m. For the same substance, the “substrate hydrolysis by hK2” value [12] was “NR”, the hK2 Hydrolysis Rate (GGKANRL (SEQ ID NO: 115)) was 1110 FU/hr/m and the hK2 Hydrolysis Rate (GGKAFRL (SEQ ID NO: 102)) was 2370 FU/hr/m. For the same substance, the hK2 Hydrolysis Rate (GHAQKRRL (SEQ ID NO: 93)) was 3670 FU/hr/m, the hK2 Hydrolysis Rate (GGKAKKL (SEQ ID NO: 120)) was 77.9 FU/hr/m and the hK2 Hydrolysis Rate (GSQNQVHL (SEQ ID NO: 92)) was 32.5 FU/hr/m. For the same substance, the hK2 Hydrolysis Rate (GGKQRRL (SEQ ID NO: 106)) was 2170 FU/hr/m, the hK2 Hydrolysis Rate (GGKKRRL (SEQ ID NO: 100)) was 2580 FU/hr/m and the hK2 Hydrolysis Rate (GSKGHFRL (SEQ ID NO: 70)) was 3030 FU/hr/m. The hK2 Hydrolysis Rate (GSNTERRL (SEQ ID NO: 77)) was 592 FU/hr/m, the hK2 Hydrolysis Rate (GGGKARRL (SEQ ID NO: 67)) was 4780 FU/hr/m and the “substrate hydrolysis by hK2” value [13] was “NR”. For the same substance, the hK2 Hydrolysis Rate (GKDVSGRL (SEQ ID NO: 79)) was 243 FU/hr/m, the hK2 Hydrolysis Rate [14] was 16.5 FU/hr/m and the “cleavage by hK2 (HPLC of fragments)” value (Semenogelin II) was “Cleavage of either Sg I or Sg II with hK2 results in generation of a multitude of peptides”. It also gave an Activity (%) with 100 µM substrate, relative to H-Pro-Phe-Arg-AMC [15] of 6%, a Kcat [15] of 1.6 min⁻¹ and a Kcat/km [15] of 0.034 µM⁻¹ min⁻¹. It also gave a Km [15] of 48 µM, a hK2 Hydrolysis Rate (GHEAKRRL (SEQ ID NO: 95)) of 3320 FU/hr/m and a hK2 Hydrolysis Rate (GPAHQDRL (SEQ ID NO: 88)) of 75.3 FU/hr/m. For the same substance, the “substrate hydrolysis by hK2” value [16] was “NR”, the hK2 Hydrolysis Rate (GSQNQVRL (SEQ ID NO: 82)) was 194 FU/hr/m and the hK2 Hydrolysis Rate (GSNTEKHL (SEQ ID NO: 87)) was 80.5 FU/hr/m. The hK2 Hydrolysis Rate (GSYEERRL (SEQ ID NO: 78)) was 325 FU/hr/m, the hK2 Hydrolysis Rate (GSYPSSHL (SEQ ID NO: 91)) was 24.7 FU/hr/m and the hK2 Hydrolysis Rate (GKDVSRRL (SEQ ID NO: 72)) was 2320 FU/hr/m. For the same substance, the hK2 Hydrolysis Rate [17] was 1470 FU/hr/m, the hK2 Hydrolysis Rate (GKDVSGHL (SEQ ID NO: 85)) was 67.5 FU/hr/m and the hK2 Hydrolysis Rate (GSNTEKRL (SEQ ID NO: 80)) was 256 FU/hr/m. It also gave a hK2 Hydrolysis Rate (GGKARNL (SEQ ID NO: 118)) of 828 FU/hr/m, a hK2 Hydrolysis Rate (GSYPSSRL (SEQ ID NO: 75)) of 1460 FU/hr/m and a hK2 Hydrolysis Rate (GGKARHL (SEQ ID NO: 117)) of 939 FU/hr/m. For the same substance, the hK2 Hydrolysis Rate (GGGKAHHL (SEQ ID NO: 86)) was 70.2 FU/hr/m, the hK2 Hydrolysis Rate [18] was 1960 FU/hr/m and the hK2 Hydrolysis Rate (GSQNQRRL (SEQ ID NO: 73)) was 2100 FU/hr/m. For the same substance, the “substrate hydrolysis by hK2” value [19] was “NR”, the hK2 Hydrolysis Rate (GHEQKRRS (SEQ ID NO: 99)) was 2640 FU/hr/m and the hK2 Hydrolysis Rate (GPLILSRL (SEQ ID NO: 83)) was 118 FU/hr/m. It also gave a hK2 Hydrolysis Rate (GGKARKL (SEQ ID NO: 112)) of 1600 FU/hr/m.
